Consider three molecules from patent US20170211067, “ANTAGONISTIC CTLA-4 APTAMERS AND APPLICATIONS THEREOF IN ENHANCING IMMUNE ACTIVITY” (Academia Sinica, published 2017).

The target of data set [1] is T1, CTLA-4 (UniProt P16410 P16410:36-161). Description: CTLA-4 stably expressing 293 cells; no binding to non-transfected 293T by flow at 10 nM. As to conditions: tags: expressed on CTLA-4-transfected 293T / stably expressing 293 cells; label: AlexaFluor 647 (flow cytometry). As to the method:
(§1) Panels A and B are FACS analysis diagrams showing the binding activities of selected aptamers to CTLA-4 expressed on wild-type 293T cells. […] The cells of panel A and panel B were incubated with 10 nM of AlexaFluor 647 labeled CA7, CA21, CA32 and CA82 aptamer as indicated. After washing away the unbounded aptamer, the fluorescent signals were measured by flow cytometry and the results of wild-type 293T cells are shown in panel A. The results for CTLA-4 expressing wild-type 293T cells are shown in panel B. Panels C, D, E and F show the CTLA-4 binding affinity of the aptamers CA7, CA21, CA32 and CA82, respectively. The four aptamers were selected and characterized for their binding affinity against CTLA-4 expressing cells. These aptamers were first synthesized and followed by 2-fold serial dilution which started from 250 nM. Six dosage points were analyzed after incubation of the selected pool with CTLA-4 stably expressed 293 cells.
(§2) Four aptamers (CA7, CA21, CA32 and CA82) isolated by the method described in Example 1 were selected by their higher structural stability. The binding specificity of these four aptamers were analyzed by flow cytometry. All four of these apatmers specifically recognized CTLA-4-expressing cells, except a relatively low non-specific binding signal in CA7 against wild type 293 cells (FIG. 2, panels A and B). […]

Data set [2] deals with T1, CTLA-4. Briefly: CTLA-4 stably expressing 293 cells, 2-fold dilutions from 250 nM; no binding to non-transfected 293T by flow at 10 nM. As to conditions: tags: expressed on CTLA-4-transfected 293T / stably expressing 293 cells; label: AlexaFluor 647 (flow cytometry); possible G-quadruplex; Mfold secondary structure dG -10.6. As to the method:
as §1, §2

Data set [3] deals with CTLA-4 (Mus musculus, UniProt P09793 P09793:36-161). Briefly: CA21 stated to cross-react with mouse CTLA-4, assay not described. As to conditions: label: AlexaFluor 647 (flow cytometry).
CTLA-4 (Mus musculus, UniProt P09793 P09793:36-161), sequence (P09793 36-161, one chain of several): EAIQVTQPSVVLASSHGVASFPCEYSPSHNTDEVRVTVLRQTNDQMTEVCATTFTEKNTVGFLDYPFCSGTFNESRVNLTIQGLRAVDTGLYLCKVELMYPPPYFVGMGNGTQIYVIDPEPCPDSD

T1 sequence (P16410 36-161, one chain of several): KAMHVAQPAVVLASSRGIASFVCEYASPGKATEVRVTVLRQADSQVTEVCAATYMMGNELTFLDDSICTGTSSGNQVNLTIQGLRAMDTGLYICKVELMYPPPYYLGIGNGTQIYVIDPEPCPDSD

B1: CA32 (ssDNA)
DNA: TCCCTACGGCGCTAACGTCCACACTCAGAAAACAGAATAGGGGGTAGCCACCGTGCTACAAC
The molecule B1 showed a Kd in the data set with CTLA-4 [1] of 61.8 nM.

B2: CA82 (ssDNA)
DNA: TCCCTACGGCGCTAACCGATCGAAAATGTCCAGGGAGTTGTCTGTAGCCACCGTGCTACAAC
B2: binding with CTLA-4 [1] was characterised by a dissociation constant (Kd) of 36.5 nM.

B3: CA21 (ssDNA)
DNA: TCCCTACGGCGCTAACGATGGTGAAAATGGGCCTAGGGTGGACGGTGCCACCGTGCTACAAC
Turning to B3, the Kd in the data set with CTLA-4 [2] was 11.8 nM. Besides, the binding result in the data set with CTLA-4 [3] is listed as “binds”.
